Like-named read-outs stand apart in the source and are kept apart here.
Experiments:
[1] = target: T1, Ago2 (Flag-tagged, HFT-Ago2) (UniProt Q9UKV8 1-859); test: filter binding
[2] = target: T1, Ago2 (Flag-tagged, HFT-Ago2); test: competition filter binding
Ago2 (HaloTag-Ago2) [3] = target: T2, Ago2 (HaloTag-Ago2) (UniProt Q9UKV8 1-859); test: competition filter binding
[4] = target: T1, Ago2 (Flag-tagged, HFT-Ago2); test: pull-down
[5] = target: T1, Ago2 (Flag-tagged, HFT-Ago2); test: pull-down; remark: listed apart in the source
Ago2 (HaloTag-Ago2) [6] = target: T2, Ago2 (HaloTag-Ago2); test: pull-down

T1 sequence (Q9UKV8 whole entry): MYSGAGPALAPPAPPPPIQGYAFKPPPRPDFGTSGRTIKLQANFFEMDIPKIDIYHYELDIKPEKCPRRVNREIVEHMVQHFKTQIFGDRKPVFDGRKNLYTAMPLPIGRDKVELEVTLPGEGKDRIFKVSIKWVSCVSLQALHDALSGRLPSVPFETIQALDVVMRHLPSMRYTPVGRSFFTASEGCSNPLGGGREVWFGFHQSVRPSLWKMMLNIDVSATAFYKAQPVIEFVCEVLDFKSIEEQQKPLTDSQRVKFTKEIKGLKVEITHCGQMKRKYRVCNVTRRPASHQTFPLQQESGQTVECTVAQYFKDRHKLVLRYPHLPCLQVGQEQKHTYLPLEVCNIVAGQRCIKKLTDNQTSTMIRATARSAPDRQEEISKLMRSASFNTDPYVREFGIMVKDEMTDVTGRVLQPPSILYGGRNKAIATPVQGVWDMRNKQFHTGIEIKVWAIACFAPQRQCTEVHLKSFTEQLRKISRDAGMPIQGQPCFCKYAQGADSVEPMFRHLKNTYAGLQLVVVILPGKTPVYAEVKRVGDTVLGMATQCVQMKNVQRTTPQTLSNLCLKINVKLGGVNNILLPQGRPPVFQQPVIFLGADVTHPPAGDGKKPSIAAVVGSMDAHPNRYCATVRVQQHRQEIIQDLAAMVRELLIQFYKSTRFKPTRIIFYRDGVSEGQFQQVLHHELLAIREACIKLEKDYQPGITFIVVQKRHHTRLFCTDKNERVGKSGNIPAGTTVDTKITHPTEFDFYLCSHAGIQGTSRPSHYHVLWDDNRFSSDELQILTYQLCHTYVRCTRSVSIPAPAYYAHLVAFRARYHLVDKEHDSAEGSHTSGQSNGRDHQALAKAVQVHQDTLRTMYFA
T2 sequence (Q9UKV8 whole entry): as above

B1: miR122-v1 guide / target-1 (seed + sup) (mixed)
RNA 1: UGGAGUGUGACAGCGGCGAAAG
RNA 2: CCGCAAAAAAAAAAACACUCCUAA
modifications: 5'-phosphate on guide
Kd [1]: 5.6 ± 0.5 pM
binding signal [2]: ~13 fold bound over target-2

B2: miR122-v2 guide / target-2 (seed + sup) (mixed)
RNA 1: UGGAGUGUGACACUAUCGAAAG
RNA 2: AUAGAAAAACACUCCUAA
modifications: 5'-phosphate on guide
binding signal (Ago2 (HaloTag-Ago2) [3]): ~5 fold bound over target-1

B3: miR122-v1 guide / target-1 with swapped (4 nt) bridge (mixed)
RNA 1: UGGAGUGUGACAGCGGCGAAAG
RNA 2: CCGCAAAAACACUCCUAA
modifications: 5'-phosphate on guide
binding result [4]: binds

B4: miR122-v1 guide / target-2 (seed-only) (mixed)
RNA 1: UGGAGUGUGACAGCGGCGAAAG
RNA 2: AUAGAAAAACACUCCUAA
modifications: 5'-phosphate on guide
binding result [5]: binds

B5: miR122-v2 guide / target-1 (seed-only) (mixed)
RNA 1: UGGAGUGUGACACUAUCGAAAG
RNA 2: CCGCAAAAAAAAAAACACUCCUAA
modifications: 5'-phosphate on guide
binding result (Ago2 (HaloTag-Ago2) [6]): binds

Reference: article PMC6961540
